Key:
Test in all cases: cell-based or functional assay
[1] = target: T1, Mouse IL-6 (mouse, UniProt P08505 25-211, limits assumed)
T1 sequence (looked up): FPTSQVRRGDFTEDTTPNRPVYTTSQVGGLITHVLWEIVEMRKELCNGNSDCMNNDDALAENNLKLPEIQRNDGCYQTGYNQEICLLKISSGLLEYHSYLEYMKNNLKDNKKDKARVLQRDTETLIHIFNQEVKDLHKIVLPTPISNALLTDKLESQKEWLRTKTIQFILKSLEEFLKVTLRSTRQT

[2] = target: Human IL-6 (human, UniProt P05231 30-212)
[3] = target: T2, Rat IL-6 (rat, UniProt P20607 25-211, limits assumed)
T2 sequence (looked up): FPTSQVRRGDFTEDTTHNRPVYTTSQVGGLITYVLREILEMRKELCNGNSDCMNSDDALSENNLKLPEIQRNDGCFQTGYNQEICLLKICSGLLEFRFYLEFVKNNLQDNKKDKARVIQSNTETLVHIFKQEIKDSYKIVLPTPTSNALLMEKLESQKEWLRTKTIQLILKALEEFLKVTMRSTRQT

[4] = target: T3, Cynomolgus monkey IL-6 (cynomolgus monkey, UniProt P79341 28-212, limits assumed)
T3 sequence (looked up): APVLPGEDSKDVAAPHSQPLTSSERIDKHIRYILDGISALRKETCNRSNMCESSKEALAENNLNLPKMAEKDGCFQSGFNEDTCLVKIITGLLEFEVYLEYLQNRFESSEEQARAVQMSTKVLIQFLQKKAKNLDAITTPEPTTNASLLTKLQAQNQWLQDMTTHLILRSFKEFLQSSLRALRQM

IC50 (pM), T1165 cell proliferation assay [1]: 1840 pM
IC50 (pM), T1165 cell proliferation assay [2]: 13 pM
IC50 (pM), T1165 cell proliferation assay [3]: 2060 pM
IC50 (pM), T1165 cell proliferation assay [4]: 12 pM
B1: Ab1 (antibody, human IgG1, kappa, N297A, V domains shown)
VH: EVQLVESGGGLVQPGGSLRLSCAASGFSLSNYYVTWVRQAPGKGLEWVGIIYGSDETAYATSAIGRFTISRDNSKNTLYLQMNSLRAEDTAVYYCARDDSSDWDAKFNLWGQGTLVTVSS
VL: AIQMTQSPSSLSASVGDRVTITCQASQSINNELSWYQQKPGKAPKLLIYRASTLASGVPSRFSGSGSGTDFTLTISSLQPDDFATYYCQQGYSLRNIDNAFGGGTKVEIKR
